Test: soluble on expression in E. coli; label from the status in PepcDB or PDB records

Sequence	soluble on expression in E. coli
MAHHHHHHSLRLKEQSLQVTTKTGKESQKKTQTTAKSTITVDIKGAVKHEGVYTLPIDSRINDVIEKAGGFSEKADRKSVNLAQKLQDEAVIYVAAIGENISVIRDSQEGKTSQADKANTKETSVKGKVNLNTATLADLQTISGIGEKKAQDILDYREANGGFKSVDDLKNISGIGDKTFEKLKDLVSVDEG	soluble
AHHHHHHGSFEISIYLPTEIVFGPGKLEMLPKLVKKHGLSGKALIVTGRRSTKETGVLYRVQELLKQAGVESIVFDKIIPNPISTHVDEGAEIARKENVSFVVGLGGGSAIDSAKAIAMTAASGGKYWDYVPAVGGGKKPTGALPIVAIPTTHGTGTEADPYAVITNPETKEKQGIGYDVLFPKFSIVDPELMLTLPKDQTVYTSMDAFYHSIEAFLNVRANPYSDVLALDSMRRIVTYLPLAYENLRNLEARTQLAWASTEAGITETVTGVVANHALEHGLSGFYPEVPHGLGLCILGPYLFEYILDYAYEKLAIVGREVFGVYEPNDRKAAELAIKKLRDFQSLFGVNKKLRELGVKEEDIPEMARTAYRMMKPVIEATPGDLKVEDLEEIYRRAY	soluble
MKPTVNVVFNAHHPKDTQPLDKFFDKELKDTHHLDITVGYISEKSLQYLLLIAGTHPDLTITLTCGMHAREGMTAAQLHHARVLHDYLSDHDRGGVFVIPRLRYHGKIYLFHKNQHTDPIAYIGSANLSAIVPGYTSTFETGVILDPAPEDLVLHLNRDVVPLCVPIDTAHVPIIKDQESPMKHVAEATAVSTSDVVAIMSSPFTYSFDLKLKATASSNLNAHNSGGGARKQKNGSFLARNWYEGEIIVGVETTRLPGYPQNKSEFTAVTDDGWSFVCKISGGNGKNLRSKGDLSILGTWLKSRFIEQGALEYGEDATQENIDRFGRTHMTMRYHPDFDVWSFDLSQTPKP	not soluble
MGSDKIHHHHHHMENALLVGLSRQVVLERQMDVVANNLANLNTNGFKAERSVFQEFLNTGAHEDNFARPDRRVSFVQDRATYHDLSTGALQETKNPLDVAIDGKGFLVVQTPQGERFTRDGSLTINAQGQLVNGSGFPVLGTGGPIVIQPTDKELSISPDGRVSVVEGTSIIDSLRGKLRVVTFDRPQSLIKQGGNLFAATSDQGTPDTKSMVRQGYVEKSNVNSVLEMTRMIDVTRTYTQISAMLQQESELRKTAIEKLAEVPA	not soluble
MSKLGKQDVYYFEGLDDILIAMMTTKDAVGTEPAFGEVVRLPIATKLGIKGNGTALEKWASSKMFRRVSRETKHEIALDHVGIPIAVMDEIKGLIAQSGVTFGKNTAREFPYFAFGFIGNIENGGKKAVWYPKTQLSNVIDEEYTTAEDETKIDDVTANFVSTGLTYNNVMYSSFDSNRDSASIELFEKFIAQPVYDEEQWKKLAGPSRGGGSELEHHHHHH	soluble
KSIVKIRNRMAAETQTLNFGPEWLRALSSGGSITSPPLSPALPKYKLADYRYGREEMLALFLKDNKIPSDLLDKEFLPILQEEPLPPLALVPFTEEEQRNFSMSVNSAAVLRLTGRGGGGTVVGAPRGRSSSRGRGRGRGECGFYQRSFDEVEGVFGRGGGREMHRSQSWEERGDRRFEKPGRKDVGKKNGYYCMYSPVLLLGQPLCQGRPNFEEGGPTSVGRKHEFIRSESENWRIFREEQNGEDEDGGWRLAGSRRDGERWRPHSPDGPRSAGWREHMERRRRFEFDFRDRDDERGYRRVRSGSGSIDDDRDSLPEWCLEDAEEEMGTFDSSGAFLSLKKVQKEPIPEEQEMDFRPVDEGEECSDSEGSHNEEAKEPDKTNKKEGEKTDRVGVASEETPQTSSSSARPGTPSDHQSQEASQFERKDEPKTEQTEKAEEETRMENSLPAKVPSRGDEMVADVQQPLSQIPSDTASPLLILPPPVPNPSPTLRPVETPVVGAPGMGSVSTEPDDEEGLKHLEQQAEKMVAYLQDSALDDERLASKLQEHRAKGVSIPLMHEAMQKWYYKDPQGEIQGPFNNQEMAEWFQAGYFTMSLLVKRACDESFQPLGDIMKMWGRVPFSPGPAPPPHMGELDQERLTRQQELTALYQMQHLQYQQFLIQQQYAQVLAQQQKAALSSQQQQQLALLLQQFQTLKMRISDQNIIPSVTRSVSVPDTGSIWELQPTASQPTVWEGGSVWDLPLDTTTPGPALEQLQQLEKAKAAKLEQERREAEMRAKREEEERKRQEELRRQQEEILRRQQEEERKRREEEELARRKQEEALRRQREQEIALRRQREEEERQQQEEALRRLEERRREEEERRKQEELLRKQEEEAAKWAREEEEAQRRLEENRLRMEEEAARLRHEEEERKRKELEVQRQKELMRQRQQQQEALRRLQQQQQQQQLAQMKLPSSSTWGQQSNTTACQSQATLSLAEIQKLEEERERQLREEQRRQQRELMKALQQQQQQQQQKLSGWGNVSKPSGTTKSLLEIQQEEARQMQKQQQQQQQHQQPNRARNNTHSNLHTSIGNSVWGSINTGPPNQWASDLVSSIWSNADTKNSNMGFWDDAVKEVGPRNSTNKNKNNASLSKSVGVSNRQNKKVEEEEKLLKLFQGVNKAQDGFTQWCEQMLHALNTANNLDVPTFVSFLKEVESPYEVHDYIRAYLGDTSEAKEFAKQFLERRAKQKANQQRQQQQLPQQQQQQPPQQPPQQPQQQDSVWGMNHSTLHSVFQTNQSNNQQSNFEAVQSGKKKKKQKMVRADPSLLGFSVNASSERLNMGEIETLDDY	soluble
NNINVITDQMGNLDIKSNDNINQNTQNSNVASDLNLLTQNKYLENILMMNTYGVNYDHLFLPQNVAYLAAQQLSNNIMNNRNQINAAYTSQQYPNQSIPIKNIYDQSHLKYQQNSSSWRPPLNNGNIYDGVKSNPMGLHILQNGIDLYTNVDSNSVTSAINFDKYDSIPVSVTGPDYSATNVIENFDELKLDPTIRNNILLASYQRPTPIQKNAIPAILEHRDIMACAQTGSGKTAAFLIPIINHLVCQDLNQQRYSKTAYPKCLILAPTRELAIQILSESQKFSLNTPLRSCVVYGGADTHSQIREVQMGCHLLVATPGRLVDFIEKNKISLEFCKYIVLDEADRMLDMGFEPQIRKIIEESNMPSGINRQTLMFSATFPKEIQKLAADFLYNYIFMTVGRVGSTSDSIKQEIIYMTDVEKLNYLKNIFNTTAPNTLILIFVETKKGADSLARFLLSKGYPVSSIHGDRSQVEREAALSMFRNGQCPILVATAVAARGLDIPNVKHVINYDLPSDIEEYVHRIGRTGRLGNHGRATSFYVDKNNNIAIDLVDLLKEANQIVPQWLSALADELKRNSTMGSNNKRHNQRRYKNGNFGGRDYRQGPSNVNMNSGVNPDYFISGSVAPRHAKLNNGNYFPRSNELHDQHQKQNNNNNQVISNTFHTGISASHLIPGYATFNRQQAPLHFIPHQTNNTQFLSSSGQMALYNRMQNSGHMAPNQRFPNEPIHHQQEQLPITYNFSKNLPYLGQSYSGHNNNNNNNNNTSKINDSDSCYFGNKTPR	soluble
MGSDKIHHHHHHALLGTTGLLHAPTADMQRDKTFLFGGNYLNTHPLSTHFRSSEVGYTFNYYINITIFPWLEVSYICTLVHADHGSTYFPEQSWGKFTNQDRAFSARLRLWKEGWWKEWTPQIVLGLDDPTSHADHGGGELVSGNTSGSNNYATRYYLAVTKHLDVQNIGEWGIHAAFVYGNAKGIEHYKRPSFGTNFRFQLLGDQPLIKVVNNLNLMAEYDARTVNIGAHYQLWKDHINLIAELNNGKYFSGGIYFKIHLK	not soluble
GSMSAKDERAREILRGFKLNWMNLRDAETGKILWQGTEDLSVPGVEHEARVPKKILKCKAVSRELNFSSTEQMEKFRLEQKVYFKGQCLEEWFFEFGFVIPNSTNTWQSLIEAAPESQMMPASVLTGNVIIETKFFDDDLLVSTSRVRLFYV	soluble
MNADKFVETTISDFMRLNSSRDFEYFVSIAKQLYSRGCRDYYTEAFLTHLKTIFPITEENAEKWLKYGEMLGTVGEKDFRTDIFEQMMKDFVDSNKLSQIAAKFHGFVESVDDWNLLAECLFSRVRALEHKINLTASAPMATDPSESSC	not soluble
MGSSHHHHHHSSGLVPRGSGDPDEQYDFLFKLVLVGDASVGKTCVVQRFKTGAFSERQGSTIGVDFTMKTLEIQGKRVKLQIWDTAGQERFRTITQSYYRSANGAILAYDITKRSSFLSVPHWIEDVRKYAGSNIVQLLIGNKSDLSELREVSLAEAQSLAEHYDILCAIETSAKDSSNVEEAFLRVATELIMRHGGPLFS	soluble
MSLKKLIVLTCTLSLLTACGDSIEKKAGEKLAAARAAFEHNDYNEAKLQIDSIKILYPKAFDTRKEGIKLMQQVELKEQQESLVYLDSMLQVKQEEFEAIKNKYTFEKNEEYQKIGNYFWPTQTVEKNLHRSFLRFQVNEQGVMTLTSIYCGPSNIHHVAVKVIAPDGSFAETPASNDSYETTDLGEKIEKADYKMGEDGNVLSFLYMNRDKKNIRVEYLGERKFSTTMTPSDREALVGTYELAKLLSSIRQIQQEKEEANLKIEFVKRKMEQKAQEEAAEKEGHHHHHH	soluble
